According to patent US20230136228A1 (LAMKAP BIO ALPHA, published 2023):

T1: human CEACAM4 (human, UniProt O75871 36-244)
T1 construct: whole, on cells
T1 sequence (looked up): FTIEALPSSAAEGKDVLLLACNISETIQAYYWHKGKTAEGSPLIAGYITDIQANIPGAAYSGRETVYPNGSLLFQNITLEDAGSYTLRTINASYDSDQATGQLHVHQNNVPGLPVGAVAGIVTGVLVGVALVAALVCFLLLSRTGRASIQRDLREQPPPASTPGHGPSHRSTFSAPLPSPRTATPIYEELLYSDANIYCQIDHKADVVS

T2: human CEACAM6 (human, UniProt P40199 35-320)
T2 construct: whole, on cells; also called CD66c
T2 sequence (looked up): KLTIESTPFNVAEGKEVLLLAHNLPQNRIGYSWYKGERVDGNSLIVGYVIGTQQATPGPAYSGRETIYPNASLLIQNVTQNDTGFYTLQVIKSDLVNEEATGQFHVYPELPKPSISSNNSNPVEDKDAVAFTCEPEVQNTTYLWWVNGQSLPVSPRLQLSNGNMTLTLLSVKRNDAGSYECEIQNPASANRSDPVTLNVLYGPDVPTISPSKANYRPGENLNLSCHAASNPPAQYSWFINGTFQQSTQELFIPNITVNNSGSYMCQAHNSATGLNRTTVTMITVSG

T3: human CEACAM3 (human, UniProt P40198 35-252)
T3 construct: whole, on cells
T3 sequence (looked up): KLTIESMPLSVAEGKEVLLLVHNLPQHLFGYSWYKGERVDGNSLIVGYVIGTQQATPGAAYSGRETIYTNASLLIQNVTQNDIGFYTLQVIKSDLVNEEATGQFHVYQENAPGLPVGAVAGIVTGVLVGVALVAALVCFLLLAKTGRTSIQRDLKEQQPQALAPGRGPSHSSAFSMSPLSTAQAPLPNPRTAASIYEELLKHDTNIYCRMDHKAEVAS

T4: human CEACAM1 (human, UniProt P13688 35-526)
T4 construct: whole, on cells
T4 sequence (looked up): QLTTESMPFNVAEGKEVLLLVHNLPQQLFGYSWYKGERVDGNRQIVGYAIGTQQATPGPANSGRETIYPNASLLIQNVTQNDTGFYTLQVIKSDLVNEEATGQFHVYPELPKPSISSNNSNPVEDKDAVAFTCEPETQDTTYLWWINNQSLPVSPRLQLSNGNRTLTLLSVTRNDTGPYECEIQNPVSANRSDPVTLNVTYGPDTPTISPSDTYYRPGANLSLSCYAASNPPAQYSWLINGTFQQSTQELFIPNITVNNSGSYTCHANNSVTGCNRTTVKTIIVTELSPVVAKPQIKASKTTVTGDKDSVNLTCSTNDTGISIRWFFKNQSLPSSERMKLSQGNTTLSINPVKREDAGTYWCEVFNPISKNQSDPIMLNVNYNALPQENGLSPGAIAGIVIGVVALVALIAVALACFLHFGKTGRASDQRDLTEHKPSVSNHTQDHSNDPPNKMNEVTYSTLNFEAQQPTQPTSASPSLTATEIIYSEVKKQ

T5: human CEACAM5 (carcinoembryonic antigen, CEA), cell surface (human, UniProt P06731 35-685)
T5 sequence (looked up): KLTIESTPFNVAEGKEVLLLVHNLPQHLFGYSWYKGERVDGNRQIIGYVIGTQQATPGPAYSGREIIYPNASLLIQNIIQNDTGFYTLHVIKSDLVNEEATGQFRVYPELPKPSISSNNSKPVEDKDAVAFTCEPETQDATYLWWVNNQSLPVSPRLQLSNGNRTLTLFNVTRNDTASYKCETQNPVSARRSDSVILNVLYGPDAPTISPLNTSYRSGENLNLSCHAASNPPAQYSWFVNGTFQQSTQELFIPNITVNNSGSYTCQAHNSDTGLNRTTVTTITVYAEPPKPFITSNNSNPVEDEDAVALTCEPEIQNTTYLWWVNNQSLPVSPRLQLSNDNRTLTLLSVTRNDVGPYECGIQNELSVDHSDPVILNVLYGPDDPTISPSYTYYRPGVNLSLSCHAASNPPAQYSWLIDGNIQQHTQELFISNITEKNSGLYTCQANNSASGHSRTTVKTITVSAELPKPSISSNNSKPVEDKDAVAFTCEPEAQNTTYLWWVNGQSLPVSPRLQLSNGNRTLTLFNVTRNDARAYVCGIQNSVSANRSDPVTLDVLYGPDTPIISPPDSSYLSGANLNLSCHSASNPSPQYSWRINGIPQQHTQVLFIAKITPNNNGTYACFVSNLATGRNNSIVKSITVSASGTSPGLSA

B1: AB1L3-1/N (bispecific antibody, human IgG1, kappa, lambda, L234A L235A)
heavy: EVQLVESGGGLVQPGGSLKLSCAASGFTFNTYAMNWVRQAPGKGLEWVGRIRSKYNNYATYYADSVKDRFTISRDDSKNTAYLQMNSLKTEDTAVYYCVRHGNFGNSYVSWFAYWGQGTLVTVSSASTKGPSVFPLAPSSKSTSGGTAALGCLVKDYFPEPVTVSWNSGALTSGVHTFPAVLQSSGLYSLSSVVTVPSSSLGTQTYICNVNHKPSNTKVDKRVEPKSCDKTHTCPPCPAPEAAGGPSVFLFPPKPKDTLMISRTPEVTCVVVDVSHEDPEVKFNWYVDGVEVHNAKTKPREEQYNSTYRVVSVLTVLHQDWLNGKEYKCKVSNKALAAPIEKTISKAKGQPREPQVYTLPPSREEMTKNQVSLTCLVKGFYPSDIAVEWESNGQPENNYKTTPPVLDSDGSFFLYSKLTVDKSRWQQGNVFSCSVMHEALHNHYTQKSLSLSPG
light 1: EIVLTQSPATLSLSPGERATLSCRASQSVNSNLNWYQQKPGQAPRLLIYHGSNRATGIPARFSGSGSGTDFTLTISSLEPEDFAVYYCQQFDLRHEHNTFGQGTKVEIKRTVAAPSVFIFPPSDEQLKSGTASVVCLLNNFYPREAKVQWKVDNALQSGNSQESVTEQDSKDSTYSLSSTLTLSKADYEKHKVYACEVTHQGLSSPVTKSFNRGEC
light 2: QTVVTQEPSLTVSPGGTVTLTCRSSTGAVTTSNYANWFQQKPGQAPRGLIGGTNKRAPGTPARFSGSLLGGKAALTLSGAQPEDEAEYYCALWYKQRWVFGGGTKLTVLGQPKAAPSVTLFPPSSEELQANKATLVCLISDFYPGAVTVAWKADSSPVKAGVETTTPSKQSNNKYAASSYLSLTPEQWKSHRSYSCQVTHEGSTVEKTVAPTECS
notes: Kappa-lambda body: common heavy chain (hIgG1 L234A+L235A+P329A), kappa CEA light chain AB1, lambda CD3 light chain L3-1 (1A4); also called parental KL bispecific antibody
B2: AB73L3-1/N (bispecific antibody, human IgG1, kappa, lambda, L234A L235A)
heavy: EVQLVESGGGLVQPGGSLKLSCAASGFTFNTYAMNWVRQAPGKGLEWVGRIRSKYNNYATYYADSVKDRFTISRDDSKNTAYLQMNSLKTEDTAVYYCVRHGNFGNSYVSWFAYWGQGTLVTVSSASTKGPSVFPLAPSSKSTSGGTAALGCLVKDYFPEPVTVSWNSGALTSGVHTFPAVLQSSGLYSLSSVVTVPSSSLGTQTYICNVNHKPSNTKVDKRVEPKSCDKTHTCPPCPAPEAAGGPSVFLFPPKPKDTLMISRTPEVTCVVVDVSHEDPEVKFNWYVDGVEVHNAKTKPREEQYNSTYRVVSVLTVLHQDWLNGKEYKCKVSNKALAAPIEKTISKAKGQPREPQVYTLPPSREEMTKNQVSLTCLVKGFYPSDIAVEWESNGQPENNYKTTPPVLDSDGSFFLYSKLTVDKSRWQQGNVFSCSVMHEALHNHYTQKSLSLSPG
light 1: EIVLTQSPATLSLSPGERATLSCRASQSVNSNLNWYQQKPGQAPRLLIYHSNNRPHGIPARFSGSGSGTDFTLTISSLEPEDFAVYYCQQFDYFREYNTFGQGTKVEIKRTVAAPSVFIFPPSDEQLKSGTASVVCLLNNFYPREAKVQWKVDNALQSGNSQESVTEQDSKDSTYSLSSTLTLSKADYEKHKVYACEVTHQGLSSPVTKSFNRGEC
light 2: QTVVTQEPSLTVSPGGTVTLTCRSSTGAVTTSNYANWFQQKPGQAPRGLIGGTNKRAPGTPARFSGSLLGGKAALTLSGAQPEDEAEYYCALWYKQRWVFGGGTKLTVLGQPKAAPSVTLFPPSSEELQANKATLVCLISDFYPGAVTVAWKADSSPVKAGVETTTPSKQSNNKYAASSYLSLTPEQWKSHRSYSCQVTHEGSTVEKTVAPTECS
notes: Kappa-lambda body, lead optimization wave 2
B3: AB71L3-1/N (bispecific antibody, human IgG1, kappa, lambda, L234A L235A)
heavy: EVQLVESGGGLVQPGGSLKLSCAASGFTFNTYAMNWVRQAPGKGLEWVGRIRSKYNNYATYYADSVKDRFTISRDDSKNTAYLQMNSLKTEDTAVYYCVRHGNFGNSYVSWFAYWGQGTLVTVSSASTKGPSVFPLAPSSKSTSGGTAALGCLVKDYFPEPVTVSWNSGALTSGVHTFPAVLQSSGLYSLSSVVTVPSSSLGTQTYICNVNHKPSNTKVDKRVEPKSCDKTHTCPPCPAPEAAGGPSVFLFPPKPKDTLMISRTPEVTCVVVDVSHEDPEVKFNWYVDGVEVHNAKTKPREEQYNSTYRVVSVLTVLHQDWLNGKEYKCKVSNKALAAPIEKTISKAKGQPREPQVYTLPPSREEMTKNQVSLTCLVKGFYPSDIAVEWESNGQPENNYKTTPPVLDSDGSFFLYSKLTVDKSRWQQGNVFSCSVMHEALHNHYTQKSLSLSPG
light 1: EIVLTQSPATLSLSPGERATLSCRASQSVNSNLNWYQQKPGQAPRLLIYHSSNRPHGIPARFSGSGSGTDFTLTISSLEPEDFAVYYCQQFDYFKEHNTFGQGTKVEIKRTVAAPSVFIFPPSDEQLKSGTASVVCLLNNFYPREAKVQWKVDNALQSGNSQESVTEQDSKDSTYSLSSTLTLSKADYEKHKVYACEVTHQGLSSPVTKSFNRGEC
light 2: QTVVTQEPSLTVSPGGTVTLTCRSSTGAVTTSNYANWFQQKPGQAPRGLIGGTNKRAPGTPARFSGSLLGGKAALTLSGAQPEDEAEYYCALWYKQRWVFGGGTKLTVLGQPKAAPSVTLFPPSSEELQANKATLVCLISDFYPGAVTVAWKADSSPVKAGVETTTPSKQSNNKYAASSYLSLTPEQWKSHRSYSCQVTHEGSTVEKTVAPTECS
notes: as for B2

Experiments:
human CEACAM4 = molecular target: T1, human CEACAM4; assay: flow cytometry, transfected PEAK cells
Text: (§1) Vectors encoding the full-length version of human CEACAM 1, 3, 4, 5, 6, 7, 8, 18, 19, 20 and […] are used to express these proteins at the surface of PEAK and/or CHO cells as described in Example 1. Similarly, vectors encoding the full-length version of cyno CEACAM 5 and 6 are also used to express these proteins at the surface of PEAK and/or CHO cells. Non-transfected PEAK and/or CHO cells are used as negative control. Cells are harvested, counted, checked for viability and resuspended at 3×10⁶ cells/ml in FACS buffer (PBS 2% BSA, 0.1% NaN₃). 100 μl of the cell suspension are distributed in V-bottom 96-well plates (3×10⁵ cells/well). The supernatant is removed by centrifugation 3 minutes at 4° C., 1300 rpm and the cells incubated for 15 minutes at 4° C. with increasing concentrations of the antibody according to the invention. The antibodies carrying the anti-CEACAM5 arms to test are diluted in FACS buffer and the concentration range is 30 pM-500 nM. Cells are washed twice with cold FACS buffer and re-incubated for further 15 minutes at 4° C. with a compatible anti-human IgG secondary antibody. Cells are washed twice with cold FACS buffer and resuspended in 300 μl FACS buffer with 1:1500-diluted TOPRO-3 (Invitrogen). Fluorescence is measured using a FACSCalibur™ (BD Biosciences) or a Cytoflex Platform (Beckman Coulter). Dose-response binding curves are fitted using GraphPad Prism8 software. In the same manner, CEACAM1, CEACAM6 and other CEACAMs can be characterized.
(§2) For the bispecific antibodies AB17L3-1/N, AB71L3-1/N, AB72L3-1/N, AB73L3-1/N the MFI measured for binding to CEACAM5 transfected cells was found between 29000 and 41000 (Table 2). In contrast MFI found by using PEAK cells transfected with CEACAM 1,3,4,6,8 were found below 1000 with the only exception of a strong signal for AB72L3-1/N on CEACAM8 transfected cells. When MFI values obtained on transfected cells expressing any given CEACAM are divided by the values obtained on WT PEAK cells, “factors to PEAK WT” can be calculated (Table 3).

human CEACAM6 = molecular target: T2, human CEACAM6; assay: flow cytometry, transfected PEAK cells
Text: as §1, §2

human CEACAM3 = molecular target: T3, human CEACAM3; assay: flow cytometry, transfected PEAK cells
Text: as §1, §2

human CEACAM1 = molecular target: T4, human CEACAM1; assay: flow cytometry, transfected PEAK cells
Text: as §1, §2

[1] = molecular target: T5, human CEACAM5 (carcinoembryonic …); assay: cell-based or functional assay

| Binder | binding result (human CEACAM4) | binding result (human CEACAM6) | binding result (human CEACAM3) | binding result (human CEACAM1) | Killing EC50, HPAFII cells (TDCC, LDH release) [1] | Killing EC50, LS174T cells (TDCC, LDH release) [1] | Killing EC50, MKN45 cells (TDCC, LDH release) [1] |
| --- | --- | --- | --- | --- | --- | --- | --- |
| B1 | no binding (tested: 10 mcg/ml) | no binding (tested: 10 mcg/ml) | no binding (tested: 10 mcg/ml) | no binding (tested: 10 mcg/ml) | – | – | – |
| B2 | – | – | – | – | 0.13 nM | 0.06 nM | 0.03 nM |
| B3 | – | – | – | – | 0.16 nM | 0.16 nM | 0.09 nM |
